{"source": "paper PMC4277747", "about": "(Journal of the American Chemical Society, 2014)", "proteins": {"B1": {"name": "APHvi (APH4) fused to maltose binding protein (MBP) (designed binder)", "chain": "KQLKQIEKRLKQIEKRLQAKEWEKAQLRKELQALRKKLAQLRE"}, "B2": {"name": "APHiii (APH3) fused to maltose binding protein (MBP) (designed binder)", "chain": "KRKKQKRKRAKQLRKRLQALEWQLAQIRKELQAAEKEEAQIEE"}, "B3": {"name": "APH fused to maltose binding protein (MBP) (designed binder)", "chain": "KQLEKELKQLEKELQAIEKQLAQLQWKAQARKKKLAQLKKKLQA"}, "B4": {"name": "APHiv fused to maltose binding protein (MBP) (designed binder)", "chain": "KEKKQLRKELKQLEKELQALRWRLAQIEKRLQAIRKRLAQKEE"}, "B5": {"name": "APHi fused to maltose binding protein (MBP) (designed binder)", "chain": "KEEKQIEKELKQIEKELQAIEWRLAQLRKRLQALRKRKAQKRE"}}, "assay_in_all_cases": "AUC", "key": {"AUC [1]": {"molecular_target": "the molecule itself"}, "AUC [2]": {"molecular_target": "the molecule itself", "remark": "listed apart in the source"}, "AUC [3]": {"molecular_target": "the molecule itself", "remark": "listed apart in the source"}}, "note": "Read-outs that look alike come from different tables or passages of the source."}
{"protein": "B1", "values": [{"measurement": "stoichiometry N", "setting": "AUC [1]", "value": 2}, {"measurement": "MW (global fit)/MW (calc., expected dimer mass)", "setting": "AUC [2]", "value": 0.96}]}
{"protein": "B2", "values": [{"measurement": "stoichiometry N", "setting": "AUC [1]", "value": 2}, {"measurement": "MW (global fit)/MW (calc., expected dimer mass)", "setting": "AUC [2]", "value": 0.94}]}
{"protein": "B3", "values": [{"measurement": "stoichiometry N", "setting": "AUC [3]", "value": 2}]}
{"protein": "B4", "values": [{"measurement": "stoichiometry N", "setting": "AUC [1]", "value": "> 2"}, {"measurement": "MW (global fit)/MW (calc., expected dimer mass)", "setting": "AUC [2]", "value": 1.23}]}
{"protein": "B5", "values": [{"measurement": "stoichiometry N", "setting": "AUC [1]", "value": "> 2"}, {"measurement": "MW (global fit)/MW (calc., expected dimer mass)", "setting": "AUC [2]", "value": 1.7}]}
